The results in this text go back to patent US20040235710A1, “Pre-mixes of glp-1 and basal insulin” (published 2004).

One assay deals with T1, human GLP-1 receptor (human, UniProt P43220). In words: cell-based or functional assay.
Regarding HVEGTFTSDYSSYLEGQAAKEFIAWLVKGRG [Val^8-Tyr^16-GLP-1(7-37)OH], the “GLP-1 Receptor Activation (relative to GLP-1(7-37)OH)” value was 1.18 relative potency.

Regarding HVEGTYTSDVSSYLEGQAAKEFIAWLVKGRG [Val^8-Tyr^12-GLP-1(7-37)OH], the “GLP-1 Receptor Activation (relative to GLP-1(7-37)OH)” value came to 0.81 relative potency.

The target in the next assay is T1, human GLP-1 receptor. In words: cell-based or functional assay. The source holds these as a separate data set.
Turning to HVEGTFTSDYSSYLEGQAAKEFIAWLVKGRG [Val^8-Tyr^16-GLP-1(7-37)OH], the “GLP-1 receptor activation relative to Val^8-GLP-1(7-37)OH” value came out at 2.5 relative potency.

In the case of HVEGTFTSDVSSYLEEQALKEFIAWLVKGRG [Val^8-Glu^22-Leu^25-GLP-1(7-37)OH], the “GLP-1 receptor activation relative to Val^8-GLP-1(7-37)OH” value came to 2.8 relative potency.

For HVEGTFTSDVSSFLEEQAAKEFIAWLVKGRG [Val^8-Phe^19-Glu^22-GLP-1(7-37)OH], the “GLP-1 receptor activation relative to Val^8-GLP-1(7-37)OH” value is 1.5 relative potency.

Consider HVEGTFTSDYSSFLEGQAAKEFIAWLVKGRG [Val^8-Tyr^16-Phe^19-GLP-1(7-37)OH], for which the “GLP-1 receptor activation relative to Val^8-GLP-1(7-37)OH” value was found to be 2.8 relative potency.

For HVEGTFTSDVSSWLEEQAAKEFIAWLVKGRG [Val^8-Trp^19-Glu^22-GLP-1(7-37)OH], the “GLP-1 receptor activation relative to Val^8-GLP-1(7-37)OH” value came out at 3.2 relative potency.

Regarding HVEGTFTSDVSKYLEEQAAKEFIAWLVKGRG [Val^8-Lys^18-Glu^22-GLP-1(7-37)OH], the “GLP-1 receptor activation relative to Val^8-GLP-1(7-37)OH” value turned out to be 2.5 relative potency.

On to HVEGTFTSDLSSYLEEQAAKEFIAWLVKGRG [Val^8-Leu^16-Glu^22-GLP-1(7-37)OH], for which the “GLP-1 receptor activation relative to Val^8-GLP-1(7-37)OH” value worked out at 4.3 relative potency.

On to HVEGTFTSDFSSYLEEQAAKEFIAWLVKGRG [Val^8-Phe^16-Glu^22-GLP-1(7-37)OH], for which the “GLP-1 receptor activation relative to Val^8-GLP-1(7-37)OH” value stood at 2.3 relative potency.

Consider HVEGTYTSDVSSYLEGQAAKEFIAWLVKGRG [Val^8-Tyr^12-GLP-1(7-37)OH], for which the “GLP-1 receptor activation relative to Val^8-GLP-1(7-37)OH” value is 1.7 relative potency.

As for HVEGTWTSDVSSYLEEQAAKEFIAWLVKGRG [Val^8-Trp^12-Glu^22-GLP-1(7-37)OH], the “GLP-1 receptor activation relative to Val^8-GLP-1(7-37)OH” value is 1.7 relative potency.

On to HVEGTFTSDYSSWLEEQAAKEFIAWLVKGRG [Val^8-Tyr^16-Trp^19-Glu^22-GLP-1(7-37)OH], for which the “GLP-1 receptor activation relative to Val^8-GLP-1(7-37)OH” value came to 3.5 relative potency.

Consider HVEGTFTSDWSSYLEEQAAKEFIAWLIKGRG [Val^8-Trp^16-Glu^22-Ile^33-GLP-1(7-37)OH], for which the “GLP-1 receptor activation relative to Val^8-GLP-1(7-37)OH” value turned out to be 4.1 relative potency.

For the molecule HVEGTFTSDVSSYFEEQAAKEFIAWLVKGRG [Val^8-Phe^20-Glu^22-GLP-1(7-37)OH], the “GLP-1 receptor activation relative to Val^8-GLP-1(7-37)OH” value was found to be 2.7 relative potency.

On to HVEGTFTSDVSIYLEEQAAKEFIAWLVKGRG [Val^8-Ile^18-Glu^22-GLP-1(7-37)OH], for which the “GLP-1 receptor activation relative to Val^8-GLP-1(7-37)OH” value was found to be 4 relative potency.

As to HVEGTFTSDVSSYLEEQAAKIFIAWLVKGRG [Val^8-Glu^22-Ile^27-GLP-1(7-37)OH], the “GLP-1 receptor activation relative to Val^8-GLP-1(7-37)OH” value is 2 relative potency.

Take HVEGTFTSDVSSYLEEQAIKEFIAWLVKGRG [Val^8-Glu^22-Ile^25-GLP-1(7-37)OH]: the “GLP-1 receptor activation relative to Val^8-GLP-1(7-37)OH” value amounted to 3.1 relative potency.

As for HVEGTYTSDVSSYLEEQAAKEFIAWLVKGRG [Val^8-Tyr^12-Glu^22-GLP-1(7-37)OH], the “GLP-1 receptor activation relative to Val^8-GLP-1(7-37)OH” value stood at 2.7 relative potency.

Take HVEGTFTSDISSYLEEQAAKEFIAWLVKGRG [Val^8-Ile^16-Glu^22-GLP-1(7-37)OH]: the “GLP-1 receptor activation relative to Val^8-GLP-1(7-37)OH” value is 3.3 relative potency.

For HVEGTFTSDVSFYLEEQAAKEFIAWLVKGRG [Val^8-Phe^18-Glu^22-GLP-1(7-37)OH], the “GLP-1 receptor activation relative to Val^8-GLP-1(7-37)OH” value came to 2 relative potency.

Consider HVDGIFTSDYSSYLEEQAAKEFIAWLVKGRG [Val^8-Asp^9-Ile^11-Tyr^16-Glu^22-GLP-1(7-37)OH], for which the “GLP-1 receptor activation relative to Val^8-GLP-1(7-37)OH” value turned out to be 4.3 relative potency.

As for HVEGTFTSDWSSYLEEQAVKEFIAWLIKGRG [Val^8-Trp^16-Glu^22-Val^25-Ile^33-GLP-1(7-37)OH], the “GLP-1 receptor activation relative to Val^8-GLP-1(7-37)OH” value was found to be 5 relative potency.

A further assay addresses T1, human GLP-1 receptor.
Assay: not given
As to Val^8-Val^16-GLP-1(7-37)OH (peptide), the GLP-1 receptor activation relative to Val^8-GLP-1(7-37)OH (relative potency) worked out at 1.1.

Molecule “Val^8-Cys^16-Lys^26-GLP-1(7-37)OH (peptide)” had a GLP-1 receptor activation relative to Val^8-GLP-1(7-37)OH (relative potency) of 4.2.

“Val^8-Cys^16-Lys^26-Arg^34-GLP-1(7-37)OH (peptide)” returned a GLP-1 receptor activation relative to Val^8-GLP-1(7-37)OH (relative potency) of 1.9.
